Assay results from IntAct's records for PubMed 11711533.

B1: Tyrosine-protein phosphatase non-receptor type 12 (Mus musculus), P35831 (parent)
chain: MEQVEILRRFIQRVQAMKSPDHNGEDNFARDFMRLRRLSTKYRTEKIYPTATGEKEENVKKNRYKDILPFDHSRVKLTLKTPSQDSDYINANFIKGVYGPKAYVATQGPLANTVIDFWRMIWEYNVVIIVMACREFEMGRKKCERYWPLYGEDPITFAPFKISCENEQARTDYFIRTLLLEFQNESRRLYQFHYVNWPDHDVPSSFDSILDMISLMRKYQEHEDVPICIHCSAGCGRTGAICAIDYTWNLLKAGKIPEEFNVFNLIQEMRTQRHSAVQTKEQYELVHRAIAQLFEKQLQLYEIHGAQKIADGNEITTGTMVSSIDSEKQDSPPPKPPRTRSCLVEGDAKEEILQPPEPHPVPPILTPSPPSAFPTVTTVWQDSDRYHPKPVLHMASPEQHPADLNRSYDKSADPMGKSESAIEHIDKKLERNLSFEIKKVPLQEGPKSFDGNTLLNRGHAIKIKSASSSVVDRTSKPQELSAGALKVDDVSQNSCADCSAAHSHRAAESSEESQSNSHTPPRPDCLPLDKKGHVTWSLHGPENATPVPDSPDGKSPDNHSQTLKTVSSTPNSTAEEEAHDLTEHHNSSPLLKAPLSFTNPLHSDDSDSDGGSSDGAVTRNKTSISTASATVSPASSAESACTRRVLPMSIARQEVAGTPHSGAEKDADVSEESPPPLPERTPESFVLADMPVRPEWHELPNQEWSEQRESEGLTTSGNEKHDAGGIHTEASADSPPAFSDKKDQITKSPAEVTDIGFGNRCGKPKGPREPPSEWT
B2: Proline-serine-threonine phosphatase-interacting protein 1 (Mus musculus), P97814 (parent)
chain: MMAQLQFRDAFWCRDFTAHTGYEVLLQRLLDGRKMCKDVEELLRQRAQAEERYGKELVQIARKAGGQTEMNSLRTSFDSLKQQTENVGSAHIQLALALREELRSLEEFRERQKEQRKKYEAIMDRVQKSKLSLYKKTMESKKAYDQKCRDADDAEQAFERVSANGHQKQVEKSQNKAKQCKESATEAERVYRQNIEQLERARTEWEQEHRTTCEAFQLQEFDRLTILRNALWVHCNQLSMQCVKDDELYEEVRLTLEGCDVEGDINGFIQSKSTGREPPAPVPYQNYYDREVTPLIGSPSIQPSCGVIKRFSGLLHGSPKTTPSAPAASTETLTPTPERNELVYASIEVQATQGNLNSSAQDYRALYDYTAQNSDELDISAGDILAVILEGEDGWWTVERNGQRGFVPGSYLEKL
partner: B1 chain

Variants of: B1
Settings: with ppip1_mouse Pstpip1, P97814

effect of a mutation on the interaction | Variant
decreasing interaction | C231S

Variants of: B2
Settings: with ptn12_mouse Ptpn12, P35831

effect of a mutation on the interaction | Variant
disrupting interaction | Y344F
